The target of experiment [1] is T1, GST-PDK1 L155E (human, UniProt O15530 1-556).
T1 construct: range 1-556; not shown: N-terminal GST tag, pEBG2T vector
T1 sequence (looked up): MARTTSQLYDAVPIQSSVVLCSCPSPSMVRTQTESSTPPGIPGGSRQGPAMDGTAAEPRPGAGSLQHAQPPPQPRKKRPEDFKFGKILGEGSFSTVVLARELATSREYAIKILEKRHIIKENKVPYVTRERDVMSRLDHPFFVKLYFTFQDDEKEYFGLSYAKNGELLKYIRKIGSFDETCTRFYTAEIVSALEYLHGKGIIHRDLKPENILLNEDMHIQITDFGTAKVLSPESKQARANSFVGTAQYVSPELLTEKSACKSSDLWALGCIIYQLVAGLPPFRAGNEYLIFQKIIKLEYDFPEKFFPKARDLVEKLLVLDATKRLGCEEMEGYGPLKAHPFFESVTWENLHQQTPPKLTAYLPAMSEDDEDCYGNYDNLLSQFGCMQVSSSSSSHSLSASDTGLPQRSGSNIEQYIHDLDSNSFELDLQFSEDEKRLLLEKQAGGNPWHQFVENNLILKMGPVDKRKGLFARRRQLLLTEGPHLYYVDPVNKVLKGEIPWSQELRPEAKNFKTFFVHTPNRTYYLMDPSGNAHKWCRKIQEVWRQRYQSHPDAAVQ
Briefly: binding experiment not described (presumably pull-down). How it is done: Binding of PDK1 to SGK1 and S6K1. For the data presented in FIG. 22, 293 cells were cotransfected with 10 μg of the wild type or mutant PDK1 plasmid and 10 μg of either the wild type or mutant S6K1 or SGK1. 36 h post-transfection the cells were lysed in 0.6 ml of Buffer A and the lysates were cleared by centrifugation at 13 000×g for 10 min at 2° C., and 0.5 ml of supernatant was incubated for 2 h at 4° C. with 30 μl of glutathione-Sepharose. The beads were washed twice in Buffer A containing 0.5 M NaCl, followed by two further washes in Buffer A. The beads were resuspended in 30 μl Laemmli Sample Buffer and subjected to SDS polyacrylamide gel electrophoresis. The gels were either stained with Coomassie blue, or analysed by immunoblotting with either anti-Flag or anti-Myc antibodies (described below).
Interaction of S6K1 and SGK1 with PDK1. […] We therefore tested whether this could be explained by the inability of full length S6K1 to interact with PDK1. To test this hypothesis we coexpressed in 293 cells GST-PDK1 together with full length S6K1, fill length S6K1[T412E] and the C-terminal truncated forms of these mutants (S6K1-T2 and S6K1-T2[T412E]) which have Flag epitope tags. Glutathione-Sepharose “pull-downs” of GST-PDK1 from these extracts were immunoblotted for the presence of Flag epitope tagged S6K1. […] S6K1-T2[T412E] interacted moderately better with GST-PDK1 compared to S6K1-T2.

For another experiment, the target named is T2, GST-PDK1 L155S (human, UniProt O15530 1-556).
T2 construct: range 1-556; not shown: N-terminal GST tag, pEBG2T vector
T2 sequence (looked up): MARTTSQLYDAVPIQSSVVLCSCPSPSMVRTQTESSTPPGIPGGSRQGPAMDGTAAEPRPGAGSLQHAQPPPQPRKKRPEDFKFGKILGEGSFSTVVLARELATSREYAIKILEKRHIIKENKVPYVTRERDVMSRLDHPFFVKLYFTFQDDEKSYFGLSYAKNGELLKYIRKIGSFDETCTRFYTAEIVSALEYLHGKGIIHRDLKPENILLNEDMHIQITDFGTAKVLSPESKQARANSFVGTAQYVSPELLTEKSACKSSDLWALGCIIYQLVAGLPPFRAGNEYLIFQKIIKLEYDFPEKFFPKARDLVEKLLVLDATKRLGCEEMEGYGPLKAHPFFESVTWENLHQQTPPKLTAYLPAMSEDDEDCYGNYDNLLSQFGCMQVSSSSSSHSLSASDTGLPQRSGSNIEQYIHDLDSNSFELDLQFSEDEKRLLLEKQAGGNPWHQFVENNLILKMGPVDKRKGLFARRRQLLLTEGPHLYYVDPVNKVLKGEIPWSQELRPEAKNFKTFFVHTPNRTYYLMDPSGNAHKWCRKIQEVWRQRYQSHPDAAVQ
Kind of experiment: SPR over immobilised biotinylated PIFtide. On the procedure: (§1) Duplicates of each condition are shown. Similar results were obtained in 3 to 5 separate experiments. (D) Surface Plasmon Resonance measurements were carried out in a BiaCore instrument as described in the Methods to measure the interaction of wild type and mutant GST-PDK1 preparations with the 24 residue synthetic peptide whose sequence encompasses the PDK1 binding site on PIF termed PIFtide [24: Example 2]. PIFtide was immobilised on a SA SensorChip and wild type (wt) or the indicated mutants of PDK1 were injected at a concentration of 40 nM. All data are single determinations from a representative experiment that was repeated at least 3 times with similar results. For clarity, the bulk, refractive index changes associated with the beginning and end 10 seconds of the injection have been removed.
(§2) Binding was analysed directly by surface plasmon resonance in an upgraded Bia-Lite™ system. PIFtide (comprising the last 24 residues of PRK2) was biotinylated though its C-terminal Cys and bound to an streptavidin-coated Sensor/Chip SA, as described previously. Wild type or mutant preparations of GST-PDK1 (10-400 nM) were injected in an intracellular type buffer, over the immobilised biotinylated PIFtide at a flow rate of 30 μl per min as described previously (James et al (1996) Biochem J 315, 709-713). Alternatively, the wild type or mutant preparations of GST-PDK1 (1 μM) were incubated with PIFtide or D978A-PIFtide (0.10 μM) and the mixture injected over the immobilised peptides. The decrease is steady state binding between wild type and mutant GST-PDK1 and peptide was used to determine the Kd of interaction between PDK1 and the peptide. The decrease in the maximal response at different concentrations of peptide was used to evaluate the relative affinities of both peptides for PDK1. The sensor chip surface was regenerated by pulses of 10 mM NaOH. […]

In another experiment the target is T3, GST-PDK1 L155D (human, UniProt O15530 1-556).
T3 construct: range 1-556; also called L155D mutant of GST-PDK1; not shown: N-terminal GST tag, pEBG2T vector
T3 sequence (looked up): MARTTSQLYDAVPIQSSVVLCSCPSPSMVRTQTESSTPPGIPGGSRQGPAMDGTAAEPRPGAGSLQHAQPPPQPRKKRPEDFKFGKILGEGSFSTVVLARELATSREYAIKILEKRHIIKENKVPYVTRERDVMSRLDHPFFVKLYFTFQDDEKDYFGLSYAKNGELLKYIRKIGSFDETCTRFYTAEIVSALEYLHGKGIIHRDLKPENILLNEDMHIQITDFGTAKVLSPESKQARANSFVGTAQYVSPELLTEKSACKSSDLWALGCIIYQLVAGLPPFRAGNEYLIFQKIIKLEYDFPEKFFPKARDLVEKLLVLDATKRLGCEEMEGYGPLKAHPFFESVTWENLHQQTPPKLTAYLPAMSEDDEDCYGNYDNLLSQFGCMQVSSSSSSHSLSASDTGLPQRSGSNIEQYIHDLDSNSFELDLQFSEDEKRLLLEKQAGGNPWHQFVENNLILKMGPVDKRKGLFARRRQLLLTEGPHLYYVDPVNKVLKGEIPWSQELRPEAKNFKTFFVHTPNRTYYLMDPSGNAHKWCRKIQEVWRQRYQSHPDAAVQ
Kind of experiment: SPR over immobilised biotinylated PIFtide. How it is done: as §1, §2

Experiment [2] has as its target T1, GST-PDK1 L155E. Kind of experiment: SPR over immobilised biotinylated PIFtide. On the procedure: as §1, §2
In another experiment the target is T4, His-PDK1 (human, UniProt O15530 52-556).
T4 construct: range 52-556; Expressed in Sf9 cells; also called His-tagged PDK1; PDK1 (residues 52-556) with a hexahistidine tag; not shown: N-terminal hexahistidine (His) tag
T4 sequence (looked up): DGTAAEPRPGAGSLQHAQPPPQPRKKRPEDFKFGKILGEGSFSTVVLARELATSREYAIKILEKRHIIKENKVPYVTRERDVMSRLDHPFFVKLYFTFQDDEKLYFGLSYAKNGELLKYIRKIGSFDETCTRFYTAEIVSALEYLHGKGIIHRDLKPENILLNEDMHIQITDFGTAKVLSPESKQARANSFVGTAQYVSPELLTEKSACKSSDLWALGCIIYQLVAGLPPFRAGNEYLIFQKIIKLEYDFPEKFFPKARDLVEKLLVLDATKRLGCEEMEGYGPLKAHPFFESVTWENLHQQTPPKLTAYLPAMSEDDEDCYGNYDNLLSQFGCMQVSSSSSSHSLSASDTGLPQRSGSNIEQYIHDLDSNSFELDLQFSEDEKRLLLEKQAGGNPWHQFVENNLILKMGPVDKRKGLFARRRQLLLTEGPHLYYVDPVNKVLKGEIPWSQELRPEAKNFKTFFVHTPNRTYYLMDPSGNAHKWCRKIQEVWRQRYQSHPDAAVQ
Kind of experiment: SPR, immobilised biotinylated 24 residue peptide.

“And” between values parts separate entries of the source, which are not always exact repeats. Identical values can stand only once. Where no end group is shown, it is not given here. The star is where a group is joined. Biotin = O=C1N[C@H]2[C@H](CS[C@H]2CCCCC(=O)*)N1

Broadly, the Kd is the equilibrium constant for the complex coming apart.

B1: full length S6K1 mutant in which Thr412 and all five phosphorylated C-terminal residues were mutated to acidic residues (enzyme, human, UniProt P23443 1-525, looked up)
chain: MRRRRRRDGFYPAPDFRDREAEDMAGVFDIDLDQPEDAGSEDELEEGGQLNESMDHGGVGPYELGMEHCEKFEISETSVNRGPEKIRPECFELLRVLGKGGYGKVFQVRKVTGANTGKIFAMKVLKKAMIVRNAKDTAHTKAERNILEEVKHPFIVDLIYAFQTGGKLYLILEYLSGGELFMQLEREGIFMEDTACFYLAEISMALGHLHQKGIIYRDLKPENIMLNHQGHVKLTDFGLCKESIHDGTVTHTFCGTIEYMAPEILMRSGHNRAVDWWSLGALMYDMLTGAPPFTGENRKKTIDKILKCKLNLPPYLTQEARDLLKKLLKRNAASRLGAGPGDAGEVQAHPFFRHINWEELLARKVEPPFKPLLQSEEDVSQFDSKFTRQTPVDSPDDSTLSESANQVFLGFEYVAPSVLESVKEKFSFEPKIRDPRRFIGDPREPVDPVKFDPGDFWGRGASASTANPQTPVEYPMETSGIEQMDVTMSGEASAPLPIRQPNSGPYKKQAFPMISKRPEHLRMNL
notes: mature
Take B1: the binding result in the experiment with GST-PDK1 L155E [1] is “no binding”.

B2: biotinylated PIFtide, immobilised (peptide)
peptide: REPRILSEEEQEMFRDFDYIADWC(Biotin)
notes: also called immobilised, biotinylated synthetic peptide termed PIFtide; immobilised and biotinylated 24 residue synthetic peptide
For B2, the binding result in the experiment with GST-PDK1 L155S, with GST-PDK1 L155D and in the experiment with GST-PDK1 L155E [2] was “no binding (tested: injected at 40 nM)” in each case. Moreover, in the experiment with His-PDK1, the Kd was 800 nM and 1500 nM.

These data come from patent US20030143656A1 (published 2003).
